Test results taken from the Immune Epitope Database (IEDB).

Legend:
HLA-A*02:01 [1] = assay: IEDB peptide-MHC binding, purified MHC/competitive/fluorescence; filed as Kd, often an IC50 or EC50 that approximates it; ≥ and ≤ were set here for values at or beyond the usual limits of such assays
HLA-A*02:06 = assay: as above; conditions: source organism: Bacillus cereus
HLA-C*05:01 = assay: IEDB peptide-MHC binding, purified MHC/direct/fluorescence; filed as Kd, often an IC50 or EC50 that approximates it; ≥ and ≤ were set here for values at or beyond the usual limits of such assays
HLA-B*39:01 [2] = assay: as above; conditions: source organism: Bacillus anthracis str. A0465
HLA-A*03:01 [3] = assay: as above
HLA-A*31:01 = assay: as above
HLA-A*11:01 = assay: as above
HLA-B*57:01 [4] = assay: as above
HLA-B*58:01 [5] = assay: as above
HLA-B*27:05 = assay: as above
HLA-A*69:01 [6] = assay: as above; conditions: source organism: Bacillus anthracis
HLA-B*15:17 = assay: as above; conditions: source organism: Bacillus anthracis
HLA-B*46:01 [7] = assay: as above
HLA-B*40:01 = assay: as above
HLA-A*01:01 = assay: as above
HLA-B*15:01 [8] = assay: as above
HLA-B*48:01 = assay: as above
HLA-B*08:02 = assay: as above; conditions: source organism: Bacillus anthracis str. A0465
HLA-A*24:03 = assay: as above; conditions: source organism: Mycobacterium tuberculosis
HLA-B*45:06 = assay: IEDB peptide-MHC binding, purified MHC/competitive/fluorescence; filed as Kd, often an IC50 or EC50 that approximates it; ≥ and ≤ were set here for values at or beyond the usual limits of such assays; conditions: source organism: Mycobacterium tuberculosis H37Ra
HLA-B*15:42 = assay: as above; conditions: source organism: Mycobacterium tuberculosis H37Ra
HLA-B*83:01 = assay: as above; conditions: source organism: Mycobacterium tuberculosis H37Ra
HLA-B*51:01 = assay: as above; conditions: source organism: Mycobacterium tuberculosis H37Ra
HLA-A*02:01 [9] = assay: IEDB peptide-MHC binding, purified MHC/direct/fluorescence; filed as Kd, often an IC50 or EC50 that approximates it; ≥ and ≤ were set here for values at or beyond the usual limits of such assays; conditions: source organism: Mycobacterium tuberculosis C
HLA-B*44:02 = assay: as above; conditions: source organism: Mycobacterium tuberculosis C
HLA-B*08:01 = assay: as above; conditions: source organism: Mycobacterium tuberculosis C
HLA-A*29:02 [10] = assay: as above; conditions: source organism: Mycobacterium tuberculosis C
HLA-B*27:03 = assay: IEDB peptide-MHC binding, purified MHC/competitive/fluorescence; filed as Kd, often an IC50 or EC50 that approximates it; ≥ and ≤ were set here for values at or beyond the usual limits of such assays; conditions: source organism: Entamoeba histolytica
HLA-A*68:02 = assay: as above; conditions: source organism: Entamoeba histolytica
HLA-A*02:12 = assay: as above; conditions: source organism: Entamoeba histolytica
HLA-B*39:01 [11] = assay: as above; conditions: source organism: Entamoeba histolytica
HLA-A*26:01 = assay: as above; conditions: source organism: Entamoeba histolytica
HLA-A*29:02 [12] = assay: as above; conditions: source organism: Entamoeba histolytica
HLA-A*03:01 [13] = assay: as above; conditions: source organism: Entamoeba histolytica
HLA-B*57:01 [14] = assay: as above; conditions: source organism: Entamoeba histolytica
HLA-A*02:03 = assay: as above; conditions: source organism: Entamoeba histolytica
HLA-A*02:11 = assay: as above; conditions: source organism: Entamoeba histolytica
HLA-A*02:19 = assay: as above; conditions: source organism: Entamoeba histolytica
HLA-A*69:01 [15] = assay: as above; conditions: source organism: Entamoeba histolytica
HLA-B*46:01 [16] = assay: as above; conditions: source organism: Entamoeba histolytica
HLA-B*15:01 [17] = assay: as above; conditions: source organism: Entamoeba histolytica
HLA-A*02:16 = assay: as above; conditions: source organism: Entamoeba histolytica
HLA-C*12:03 = assay: IEDB peptide-MHC binding, purified MHC/direct/fluorescence; filed as Kd, often an IC50 or EC50 that approximates it; ≥ and ≤ were set here for values at or beyond the usual limits of such assays
HLA-B*35:01 = assay: IEDB peptide-MHC binding, purified MHC/competitive/radioactivity; filed as Kd, often an IC50 or EC50 that approximates it; ≥ and ≤ were set here for values at or beyond the usual limits of such assays; conditions: source organism: Dengue virus 4 Philippines/H241/1956
HLA-B*53:01 = assay: as above; conditions: source organism: Dengue virus 4 Philippines/H241/1956
HLA-B*57:01 [18] = assay: as above
HLA-B*58:01 [19] = assay: as above
[20] = source organism: Bacillus cereus
[21] = source organism: Bacillus anthracis
[22] = source organism: Mycobacterium tuberculosis C
[23] = source organism: Entamoeba histolytica
[24] = source organism: Dengue virus 4 Philippines/H241/1956
[25] = source organism: Dengue virus 1 Brazil/97-11/1997

With MSDIFASEV as the sequence, how does the Kd (HLA-A*02:01 [1]; [20]) read?
Its Kd is 0.0302 µM.

What about the Kd (HLA-A*02:06) of the same sequence?
The Kd was 0.0121 µM.

What about the Kd (HLA-C*05:01; [20]) of the same sequence?
Its Kd is no more than 0.001 µM.

And the Kd (HLA-B*39:01 [2])?
Its Kd is 0.467 µM.

What about the Kd (HLA-A*03:01 [3]; [21]) of the same sequence?
Its Kd is no less than 20 µM.

What about the Kd (HLA-A*31:01; [21]) of the same sequence?
The Kd was no less than 20 µM.

And the Kd (HLA-A*11:01; [21])?
The Kd was no less than 20 µM.

And the Kd (HLA-B*57:01 [4]; [21])?
The Kd was no less than 20 µM.

What about the Kd (HLA-B*58:01 [5]; [21]) of the same sequence?
Its Kd is no less than 20 µM.

And the Kd (HLA-B*27:05; [21])?
The Kd was no less than 20 µM.

What about the Kd (HLA-A*69:01 [6]) of the same sequence?
Its Kd is no more than 0.001 µM.

And the Kd (HLA-B*15:17)?
Its Kd is 0.0021 µM.

And the Kd (HLA-B*46:01 [7]; [21])?
Its Kd is no less than 20 µM.

What about the Kd (HLA-B*40:01; [21]) of the same sequence?
Its Kd is no less than 20 µM.

What about the Kd (HLA-A*01:01; [21]) of the same sequence?
Its Kd is 0.0073 µM.

And the Kd (HLA-B*15:01 [8]; [21])?
Its Kd is no less than 20 µM.

And the Kd (HLA-B*48:01; [21])?
The Kd was no less than 20 µM.

What about the Kd (HLA-B*08:02) of the same sequence?
Its Kd is no less than 20 µM.

LYDAVAALF was tested. Which Kd (HLA-C*05:01; [22]) did it give?
The Kd was 0.073 µM.

What about the Kd (HLA-A*24:03) of the same sequence?
The Kd was no more than 0.0001 µM.

With FPRYPLNVL as the sequence, how does the Kd (HLA-B*45:06) read?
Its Kd is no less than 5 µM.

And the Kd (HLA-B*15:42)?
Its Kd is no less than 5 µM.

What about the Kd (HLA-B*83:01) of the same sequence?
The Kd was 2.65 µM.

What about the Kd (HLA-B*51:01) of the same sequence?
The Kd was no less than 20 µM.

And the Kd (HLA-A*02:01 [9])?
The Kd was no less than 20 µM.

What about the Kd (HLA-C*05:01; source organism: Mycobacterium tuberculosis H37Ra) of the same sequence?
Its Kd is no less than 20 µM.

What about the Kd (HLA-B*44:02) of the same sequence?
The Kd was no less than 20 µM.

And the Kd (HLA-B*08:01)?
The Kd was 1.04 µM.

What about the Kd (HLA-A*29:02 [10]) of the same sequence?
The Kd was no less than 20 µM.

And the Kd (HLA-A*03:01 [3]; [22])?
Its Kd is no less than 20 µM.

And the Kd (HLA-A*31:01; [22])?
Its Kd is no less than 20 µM.

And the Kd (HLA-A*11:01; [22])?
The Kd was no less than 20 µM.

What about the Kd (HLA-B*57:01 [4]; [22]) of the same sequence?
Its Kd is no less than 20 µM.

And the Kd (HLA-B*58:01 [5]; [22])?
Its Kd is no less than 20 µM.

What about the Kd (HLA-B*27:05; [22]) of the same sequence?
Its Kd is no less than 20 µM.

And the Kd (HLA-B*46:01 [7]; [22])?
The Kd was no less than 20 µM.

And the Kd (HLA-B*40:01; [22])?
The Kd was no less than 20 µM.

What about the Kd (HLA-A*01:01; [22]) of the same sequence?
Its Kd is no less than 20 µM.

What about the Kd (HLA-B*15:01 [8]; [22]) of the same sequence?
The Kd was no less than 20 µM.

And the Kd (HLA-B*48:01; [22])?
Its Kd is no less than 20 µM.

What does the source list for RASHFRKLF?
Kd (HLA-A*02:01 [1]; [23]): ≥ 20 µM; Kd (HLA-B*27:03): ≥ 20 µM; Kd (HLA-A*68:02): ≥ 20 µM; Kd (HLA-A*02:12): ≥ 20 µM; Kd (HLA-B*39:01 [11]): ≥ 20 µM; Kd (HLA-A*26:01): ≥ 20 µM; Kd (HLA-A*29:02 [12]): ≥ 20 µM; Kd (HLA-A*03:01 [13]): ≥ 20 µM; Kd (HLA-B*57:01 [14]): 0.165 µM; Kd (HLA-A*02:03): ≥ 20 µM; Kd (HLA-A*02:11): ≥ 20 µM; Kd (HLA-A*02:19): ≥ 20 µM; Kd (HLA-A*69:01 [15]): ≥ 20 µM; Kd (HLA-B*46:01 [16]): ≥ 20 µM; Kd (HLA-B*15:01 [17]): ≥ 20 µM; Kd (HLA-A*02:16): ≥ 20 µM; Kd (HLA-C*12:03; [23]): 0.019 µM

Which results are given for MAILGETAW?
Kd (HLA-B*35:01): 0.102 µM; Kd (HLA-B*53:01): 0.00705 µM; Kd (HLA-B*57:01 [18]; [24]): 0.0235 µM; Kd (HLA-B*58:01 [19]; [24]): 0.00347 µM

Which Kd (HLA-B*57:01 [18]; [25]) does the source give for KTSAGVNMCT here?
Its Kd is 1.13 µM.

And the Kd (HLA-B*58:01 [19]; [25])?
The Kd was 4.52 µM.

Which Kd (HLA-B*58:01 [19]; source organism: Dengue virus 3 Singapore/8120/1995) does the source give for AAVLLLVTHY here?
The Kd was 4.14 µM.

How did the Kd (HLA-C*12:03; source organism: Leishmania donovani) turn out when AMAGNPVVI was run?
Its Kd is 0.727 µM.
